The values that follow come from the supplement of paper PMC5998384.

Series [1] has as its system HeLa Kyoto. Nature of the series: melting temperature (median over replicates), in situ; higher = more thermally stable.
In series [2] the test system is HeLa Kyoto. Nature of the series: solubility change mitosis vs G1/S (difference of NP-40 vs SDS log2 ratios) (log2 ratio difference); higher = more soluble in mitosis.
The test system of series [3] is HeLa Kyoto. The series can be described thus: solubility in G1/S (NP-40 vs SDS abundance) (log2 ratio); higher = more soluble. The note with it: cell cycle stage: G1/S.
The test system of series [4] is HeLa Kyoto. Nature of the series: thermal stability score vs G1/S (z-score of summed log2 fold changes over temperatures); higher = more thermally stable than in G1/S.
The mark [5] stands for this setting: cell cycle stage: early G1 (4.5 h after nocodazole release).
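Throughout, for melting temperature (median over replicates), in situ: HeLa Kyoto cells synchronized by double thymidine or nocodazole block, proteins quantified by TMT10plex mass spectrometry, three independent biological replicates.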
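Throughout, for solubility change mitosis vs G1/S (difference of NP-40 vs SDS log2 ratios): synchronized HeLa Kyoto cells (double thymidine block for G1/S, nocodazole release for mitosis), protein amounts in NP-40 versus SDS lysates quantified by mass spectrometry, three biological replicates.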
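Throughout, for solubility in G1/S (NP-40 vs SDS abundance): HeLa Kyoto cells arrested at G1/S by double thymidine block, proteins quantified by TMT10plex mass spectrometry in mild NP-40 versus SDS extracts, three biological replicates.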
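Throughout, for thermal stability score vs G1/S (z-score of summed log2 fold changes over temperatures): synchronized HeLa Kyoto cells, proteins quantified by TMT10plex mass spectrometry, three biological replicates, mitosis taken 0.5 h after nocodazole release, G1/S directly after double thymidine block.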

Consider “MADLEAVLADVSYLMAMEKSKATPAARASKKILLPEPSIRSVMQKYLEDRGEVTFEKIFSQKLGYLLFRDFCLNHLEEARPLVEFYEEIKKYEKLETEEERVARSREIFDSYIMKELLACSHPFSKSATEHVQGHLGKKQVPPDLFQPYIEEICQNLRGDVFQKFIESDKFTRFCQWKNVELNIHLTMNDFSVHRIIGRGGFGEVYGCRKADTGKMYAMKCLDKKRIKMKQGETLALNERIMLSLVSTGDCPFIVCMSYAFHTPDKLSFILDLMNGGDLHYHLSQHGVFSEADMRFYAAEIILGLEHMHNRFVVYRDLKPANILLDEHGHVRISDLGLACDFSKKKPHASVGTHGYMAPEVLQKGVAYDSSADWFSLGCMLFKLLRGHSPFRQHKTKDKHEIDRMTLTMAVELPDSFSPELRSLLEGLLQRDVNRRLGCLGRGAQEVKESPFFRSLDWQMVFLQKYPPPLIPPRGEVNAADAFDIGSFDEEDTKGIKLLDSDQELYRNFPLTISERWQQEVAETVFDTINAETDRLEARKKAKNKQLGHEEDYALGKDCIMHGYMSKMGNPFLTQWQRRYFYLFPNRLEWRGEGEAPQSLLTMEEIQSVEETQIKERKCLLLKIRGGKQFILQCDSDPELVQWKKELRDAYREAQQLVQRVPKMKNKPRSPVVELSKVPLVQRGSANGL [ADRBK1]”, for which the values for the melting temperature in the series with HeLa Kyoto [1] (cell cycle stage: G1/S) and with HeLa Kyoto [1] (cell cycle stage: mitosis) were 51.6 °C and 51.4 °C, respectively. For the same substance, the “solubility change mitosis (log2)” value in the series on HeLa Kyoto [2] was -0.0655. The “solubility in G1/S (log2)” value with HeLa Kyoto [3] is -0.107. The thermal stability score with HeLa Kyoto [4] (setting [5]) turned out to be 1.35; in the series on HeLa Kyoto [4] (cell cycle stage: mitosis) it was 0.436.

For the substance “MGTRLPLVLRQLRRPPQPPGPPRRLRVPCRASSGGGGGGGGGREGLLGQRRPQDGQARSSCSPGGRTPAARDSIVREVIQNSKEVLSLLQEKNPAFKPVLAIIQAGDDNLMQEINQNLAEEAGLNITHICLPPDSSEAEIIDEILKINEDTRVHGLALQISENLFSNKVLNALKPEKDVDGVTDINLGKLVRGDAHECFVSPVAKAVIELLEKSGVNLDGKKILVVGAHGSLEAALQCLFQRKGSMTMSIQWKTRQLQSKLHEADIVVLGSPKPEEIPLTWIQPGTTVLNCSHDFLSGKVGCGSPRIHFGGLIEEDDVILLAAALRIQNMVSSGRRWLREQQHRRWRLHCLKLQPLSPVPSDIEISRGQTPKAVDVLAKEIGLLADEIEIYGKSKAKVRLSVLERLKDQADGKYVLVAGITPTPLGEGKSTVTIGLVQALTAHLNVNSFACLRQPSQGPTFGVKGGAAGGGYAQVIPMEEFNLHLTGDIHAITAANNLLAAAIDTRILHENTQTDKALYNRLVPLVNGVREFSEIQLARLKKLGINKTDPSTLTEEEVSKFARLDIDPSTITWQRVLDTNDRFLRKITIGQGNTEKGHYRQAQFDIAVASEIMAVLALTDSLADMKARLGRMVVASDKSGQPVTADDLGVTGALTVLMKDAIKPNLMQTLEGTPVFVHAGPFANIAHGNSSVLADKIALKLVGEEGFVVTEAGFGADIGMEKFFNIKCRASGLVPNVVVLVATVRALKMHGGGPSVTAGVPLKKEYTEENIQLVADGCCNLQKQIQITQLFGVPVVVALNVFKTDTRAEIDLVCELAKRAGAFDAVPCYHWSVGGKGSVDLARAVREAASKRSRFQFLYDVQVPIVDKIRTIAQAVYGAKDIELSPEAQAKIDRYTQQGFGNLPICMAKTHLSLSHQPDKKGVPRDFILPISDVRASIGAGFIYPLVGTMSTMPGLPTRPCFYDIDLDTETEQVKGLF [MTHFD1L]”, the melting temperature in the series on HeLa Kyoto [1] (cell cycle stage: G1/S) came to 51.7 °C; with HeLa Kyoto [1] (cell cycle stage: mitosis) it was 51.5 °C. The “solubility change mitosis (log2)” value in the series on HeLa Kyoto [2] is -0.101. The “solubility in G1/S (log2)” value with HeLa Kyoto [3] was found to be 0.247. Moreover, the figures for the thermal stability score in the series on HeLa Kyoto [4] (setting [5]) and with HeLa Kyoto [4] (cell cycle stage: mitosis) were -0.3 and 0.0484, respectively.

As for DOCK10, the results for the melting temperature in the series with HeLa Kyoto [1] (cell cycle stage: G1/S) and in the series on HeLa Kyoto [1] (cell cycle stage: mitosis) were 52.3 °C and 51.8 °C, respectively. Moreover, the “solubility change mitosis (log2)” value in the series with HeLa Kyoto [2] is -0.143. In addition, the “solubility in G1/S (log2)” value in the series on HeLa Kyoto [3] was -0.189. Also, the results for the thermal stability score with HeLa Kyoto [4] (setting [5]) and in the series with HeLa Kyoto [4] (cell cycle stage: mitosis) were -1.12 and -0.873, respectively.

As to “MAMAPSPSLVQVYTSPAAVAVWEWQDGLGTWHPYSATVCSFIEQQFVQQKGQRFGLGSLAHSIPLGQADPSLAPYIIDLPSWTQFRQDTGTMRAVRRHLFPQHSAPGRGVVWEWLSDDGSWTAYEASVCDYLEQQVARGNQLVDLAPLGYNYTVNYTTHTQTNKTSSFCRSVRRQAGPPYPVTTIIAPPGHTGVACSCHQCLSGSRTGPVSGRYRHSMTNLPAYPVPQHPPHRTASVFGTHQAFAPYNKPSLSGARSAPRLNTTNAWGAAPPSLGSQPLYRSSLSHLGPQHLPPGSSTSGAVSASLPSGPSSSPGSVPATVPMQMPKPSRVQQALAGMTSVLMSAIGLPVCLSRAPQPTSPPASRLASKSHGSVKRLRKMSVKGATPKPEPEPEQVIKNYTEELKVPPDEDCIICMEKLSTASGYSDVTDSKAIGSLAVGHLTKCSHAFHLLCLLAMYCNGNKDGSLQCPSCKTIYGEKTGTQPQGKMEVLRFQMSLPGHEDCGTILIVYSIPHGIQGPEHPNPGKPFTARGFPRQCYLPDNAQGRKVLELLKVAWKRRLIFTVGTSSTTGETDTVVWNEIHHKTEMDRNITGHGYPDPNYLQNVLAELAAQGVTEDCLEQQ [DTX2]”, the melting temperature with HeLa Kyoto [1] (cell cycle stage: mitosis) was 47.4 °C. In the series on HeLa Kyoto [2], the “solubility change mitosis (log2)” value is -0.253. In addition, the “solubility in G1/S (log2)” value with HeLa Kyoto [3] came to 0.0228. The thermal stability score in the series on HeLa Kyoto [4] (setting [5]) is 0.67; with HeLa Kyoto [4] (cell cycle stage: mitosis), 0.769.
